This note sets out measurements from doi:10.1101/2024.06.19.598823 (bioRxiv, 2024).

The target in experiment [1] is 6P stabilized SARS-CoV-2 S-ectodomain (prefusion-stabilized ancestral Wuhan spike ectodomain trimer) (SARS-CoV-2, ancestral Wuhan, stabilised). In words: cryo-EM structure.
Experiment [2] concerns the target SARS-CoV-2 spike ectodomain, trimeric recombinant (SARS-CoV-2, ancestral (Wuhan) assumed, UniProt P0DTC2). In words: cell-based or functional assay.

B1: nanobody 7F (VHH)
VHH: EVQLVESGGGLVEAGGSLRLSCVASGLTFSDYTMAWFRQVPGQEREFVSHIGWGGSETYYADSVKGRFTISRDNAKNAMYLQMNELKPDDTAVYYCAADRGSSFYYVRESEYTFWGQGTQVTVSS
For B1, the “stoichiometry N” value in experiment [1] was 6 7F molecules per two spike trimers. Moreover, the “IC50 of neutralisation of VSV pseudotyped with SARS-CoV-2 spike on VeroE6 cells” value in experiment [2] was 33.4 nM.
